Experiment [1] concerns the target MOR-eYFP_pVitro2 (wild-type µ-type opioid receptor) (UniProt P35372). Briefly: FRET or BRET; arrestin recruitment in live HEK293 cells: Nluc-arr3 (donor) and MOR-eYFP (acceptor), stimulated with β-endorphin (0.01 nM to 10 µM).
In experiment [2] the target is FLAG-CRF1R-eGFP_N1 (wild-type corticotropin-releasing factor receptor 1, R2 isoform) (human (by the printed accession)) (UniProt P34998). Briefly: FRET or BRET; arrestin recruitment in live HEK293 cells: Nluc-arr3 (donor) and FLAG-CRF1R-eGFP (acceptor), stimulated with CRF (up to 10 µM).
The target in experiment [3] is FLAG-CRF1R-eGFP_N1 C188^3.29A (human (by the printed accession)) (UniProt P34998). The experiment is described as above.
Experiment [4] concerns the target HA-Y2R-eYFP_N1 (wild-type neuropeptide Y2 receptor) (human) (UniProt P49146). Put plainly: FRET or BRET; arrestin recruitment in live HEK293 cells: Nluc-arr3 (donor) and receptor-eYFP (acceptor) co-transfected, stimulated with NPY (0.01 nM to 10 µM), HBSS with 20 mM HEPES pH 7.4, read 5, 10 and 15 min after stimulation.
The target in experiment [5] is Y1R-eYFP_N1 (wild-type neuropeptide Y1 receptor) (human) (UniProt P25929). The experiment is described as above.
The target of experiment [6] is AT1R-eYFP_N1 (wild-type angiotensin II type 1 receptor) (UniProt P30556). Briefly: FRET or BRET; arrestin recruitment in live HEK293 cells: Nluc-arr3 (donor) and AT1R-eYFP (acceptor), stimulated with agonist peptide (angiotensin II; 0.01 nM to 10 µM).
The target in experiment [7] is MOR-eYFP_pVitro2 (wild-type µ-type opioid receptor) (UniProt P35372). Briefly: FRET or BRET; arrestin recruitment in live HEK293 cells: Nluc-arr3 (donor) and MOR-eYFP (acceptor), stimulated with endomorphin-1 (0.01 nM to 10 µM).
The target of experiment [8] is Y1R-eYFP_N1 C113^3.25A (human) (UniProt P25929).
Experiment [9] concerns the target Y1R-eYFP_N1 C198^45.50A (human) (UniProt P25929).
For experiment [10], the target named is HA-Y2R-eYFP_N1 C123^3.25A (human) (UniProt P49146).
Experiment [11] addresses HA-Y2R-eYFP_N1 C203^45.50A (human) (UniProt P49146).
For experiment [12], the target named is Nluc-Y1R-eYFP_N1 C113^3.25A (human) (UniProt P25929). Put plainly: FRET or BRET; NanoBRET ligand binding: membrane preparations of HEK293 cells with Nluc-Y1/2R-eYFP, TAMRA-labeled peptide titrated, 10 min at room temperature, HBSS with 20 mM HEPES pH 7.4, 0.1% BSA; unspecific binding (excess unlabeled NPY or antagonist) subtracted; biphasic fit.
Experiment [13] deals with Nluc-Y2R-eYFP_N1 (wild-type neuropeptide Y2 receptor) (human) (UniProt P49146). The description is as above.

Results on three substances are retold here after paper PMC10419011.

Chain of Nluc-tagged bovine arrestin3 (P32120 whole entry): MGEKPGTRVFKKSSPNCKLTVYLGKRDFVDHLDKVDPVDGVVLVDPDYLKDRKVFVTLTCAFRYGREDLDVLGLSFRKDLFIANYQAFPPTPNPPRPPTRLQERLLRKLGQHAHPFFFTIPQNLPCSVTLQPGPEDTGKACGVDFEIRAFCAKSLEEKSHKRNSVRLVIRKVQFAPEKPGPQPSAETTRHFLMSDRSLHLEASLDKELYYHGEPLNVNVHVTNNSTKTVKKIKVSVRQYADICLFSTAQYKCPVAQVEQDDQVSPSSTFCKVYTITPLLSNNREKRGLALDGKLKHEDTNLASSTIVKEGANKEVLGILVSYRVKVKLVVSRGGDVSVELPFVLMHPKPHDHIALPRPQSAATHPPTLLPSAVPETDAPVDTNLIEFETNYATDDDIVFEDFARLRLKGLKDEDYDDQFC
Chain of FLAG-CRF1R-eGFP_N1 C188^3.29A (human (by the printed accession)) (P34998 24-415 C188A): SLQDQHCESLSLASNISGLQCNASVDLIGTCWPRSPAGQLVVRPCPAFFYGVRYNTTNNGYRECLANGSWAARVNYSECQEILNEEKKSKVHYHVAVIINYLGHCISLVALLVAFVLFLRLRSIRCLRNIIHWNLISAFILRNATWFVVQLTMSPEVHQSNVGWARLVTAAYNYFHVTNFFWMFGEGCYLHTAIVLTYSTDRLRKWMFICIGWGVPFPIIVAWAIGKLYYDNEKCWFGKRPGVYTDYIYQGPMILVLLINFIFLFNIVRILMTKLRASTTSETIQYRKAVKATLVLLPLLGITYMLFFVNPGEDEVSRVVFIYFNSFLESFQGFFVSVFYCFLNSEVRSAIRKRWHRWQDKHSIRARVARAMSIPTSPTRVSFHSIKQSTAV
Chain of FLAG-CRF1R-eGFP_N1 (wild-type corticotropin-releasing factor receptor 1, R2 isoform) (human (by the printed accession)) (P34998 24-415): as the sequence (P34998 24-415 C188A) above, with A165C counted along it
Chain of AT1R-eYFP_N1 (wild-type angiotensin II type 1 receptor) (P30556 whole entry): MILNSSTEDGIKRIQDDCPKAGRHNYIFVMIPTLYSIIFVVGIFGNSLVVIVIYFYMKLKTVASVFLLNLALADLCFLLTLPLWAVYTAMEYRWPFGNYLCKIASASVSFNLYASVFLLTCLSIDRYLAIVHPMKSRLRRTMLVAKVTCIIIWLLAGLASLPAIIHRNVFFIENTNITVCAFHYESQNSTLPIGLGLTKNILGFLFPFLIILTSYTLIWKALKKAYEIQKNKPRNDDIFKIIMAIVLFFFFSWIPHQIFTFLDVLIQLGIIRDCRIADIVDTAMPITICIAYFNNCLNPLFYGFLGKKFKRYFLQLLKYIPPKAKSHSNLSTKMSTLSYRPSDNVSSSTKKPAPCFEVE
Chain of Nluc-Y1R-eYFP_N1 C113^3.25A (human) (P25929 whole entry C113A): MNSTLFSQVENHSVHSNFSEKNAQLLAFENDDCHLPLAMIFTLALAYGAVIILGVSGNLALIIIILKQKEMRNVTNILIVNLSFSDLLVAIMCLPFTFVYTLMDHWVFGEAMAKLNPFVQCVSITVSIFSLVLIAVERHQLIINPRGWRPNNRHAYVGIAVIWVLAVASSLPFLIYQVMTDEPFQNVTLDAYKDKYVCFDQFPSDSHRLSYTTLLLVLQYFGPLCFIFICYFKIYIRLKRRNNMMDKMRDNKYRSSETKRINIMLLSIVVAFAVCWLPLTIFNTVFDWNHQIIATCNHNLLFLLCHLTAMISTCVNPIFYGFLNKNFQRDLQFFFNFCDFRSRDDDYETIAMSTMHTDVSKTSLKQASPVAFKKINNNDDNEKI
Chain of Y1R-eYFP_N1 C113^3.25A (human) (P25929 whole entry C113A): as above
Chain of Y1R-eYFP_N1 (wild-type neuropeptide Y1 receptor) (human) (P25929 whole entry): as the sequence (P25929 whole entry C113A) above, with A113C counted along it
Chain of Y1R-eYFP_N1 C198^45.50A (human) (P25929 whole entry C198A): as the sequence (P25929 whole entry C113A) above, with A113C, C198A counted along it

“Nluc-tagged bovine arrestin3 (from UniProt P32120 1-420) (natural protein)”: the EC50 of the agonist β-endorphin for arrestin3 recruitment in [1] was over 3000 nM. In [2], this substance had an EC50 of the agonist CRF for arrestin3 recruitment of 37 nM. Moreover, in [3], the fold shift in the agonist's EC50 for arrestin3 recruitment against wild-type CRF1R is 8 fold. Besides, the EC50 of the agonist NPY for arrestin3 recruitment worked out at 96 nM in experiment [4] and 8 nM in [5]. Moreover, the EC50 of the agonist for arrestin3 recruitment in experiment [6] turned out to be 3.6 nM. Further, the EC50 of the agonist endomorphin-1 for arrestin3 recruitment in [7] is 375 nM.

In the case of “neuropeptide Y (NPY) (from UniProt P01303 29-64)”, in [8], the inositol monophosphate accumulation via chimeric G-protein: shift of EC50 against wild-type Y1R (41% loss of Emax) was 26 fold. In [9], the inositol monophosphate accumulation via chimeric G-protein: shift of EC50 against wild-type Y1R (57% loss of Emax) was determined as 50 fold. Moreover, the cAMP reporter gene assay (Gi/o pathway): shift of the EC50 of NPY against wild-type Y2R; full activation at 10 µM NPY in [10] and in [11] was 10000 fold in each case.

With K^18-TAMRA-NPY (peptide), the fold shift in Kd against wild-type Y1R in experiment [12] is 7 fold. Besides, in experiment [13], the Kd of the high-affinity state was found to be 2.3 nM and the Kd of the low-affinity state was 267 nM.
